Columns and labels:
Experiment in all cases: split reporter
[1] = target: N-FLUC-PFE1350c (amino acids 9-135) (P. falciparum)
[2] = target: N-FLUC negative control (firefly)
[3] = target: N-FLUC-PfMyb2 fragment #13 (P. falciparum)

Row | Substance | fold luciferase signal over the N-FLUC fusion plus the C-FLUC negative control [1] | fold luciferase signal over N-FLUC-PFE1350c plus the C-FLUC negative control [2] | fold luciferase signal over N-FLUC-PFE1350c plus the C-FLUC negative control [1] | fold luciferase signal over the N-FLUC fusion plus the C-FLUC negative control [3]
1 | PFC0255c-C-FLUC (amino acids 4-137) (domain or fragment) | > 600 fold | < 2.3 fold | – | –
2 | PFL1705w-C-FLUC (amino acids 95-213) (domain or fragment) | – | – | < 2.3 fold | –
3 | PFC0365w-C-FLUC (amino acids 45-205) (domain or fragment) | – | – | < 2.3 fold | 36 fold

Reference: article PMC3120127
